Experimental data taken from the RNAGym collection of RNA variant scans (doi:10.7554/elife.80360).

B1: Hairpin Ribozyme (parent)
chain: GUCCUCUUUCACGUGCGCGUGAAAGAGAGAAGUGAACCAGAGAAACACACGUUGUGGUAUAUUACCUGGUA

Variants of: B1
Test: self-cleavage, relative activity (ratio to wild type); higher = more cleavage; co-transcriptional

Variant	self-cleavage
G34A U58A	1.09
U33C A49G	0.123
G32U U63G	0.113
G32U U63C	0.268
G32U C37U	0.161
G32U C37A	0.0811
U33A G34A	0.0987
U33A G34C	0.777
G32A G34A	0.07
U33C A44G	0.0547
U33C A44U	0.195
U33A A43G	0.169
U33C C66U	0.149
G32U U67C	0.0935
G34A A61G	0.091
G32C U67C	0.105
U33A A61U	0.167
U33A A61G	0.0674
U33G G40U	0.0849
U33G G40C	0.0649
U33G G40A	0.245
U33A G68C	0.138
U33A G68A	0.161
G34U C38G	0.595

Variant	self-cleavage
G34U C38U	1.42
G34U A64C	0.376
G34U A64G	1.17
G34C A35G	1.4
G34C A35C	1.25
U33A G40C	0.0171
G34A U55C	0.487
U33C	0.161
U33A	0.147
U33G	0.127
G34C A59C	0.145
G34C A59U	0.202
G34U G69A	0.93
U33C U55A	0.0653
G34C A61C	0.733
G34U A71G	1.58
G34U A71U	1.36
G34C A43G	0.0982
U33G G57C	0.108
U33G G57A	0.115
U33A C38U	0.0932
G32U A43C	0.0806
G32U A43G	0.0636
G32A A47C	0.143

Variant	self-cleavage
G34C G57C	0.195
U33G U63G	0.198
U33G C48G	0.209
U33G C48U	0.112
G32U G34U	0.126
U33G A61U	0.0863
U33G A61G	0.229
G34U A61G	0.636
G34U A61C	1.2
G32A C38G	0.1
U33C C38U	0.0575
A31U U70A	0.0877
G34A A36G	1.19
G34A A36U	0.832
G32U C48A	0.0918
G32U C48U	0.15
G32C A61G	0.136
G32U G57C	0.129
G32U G57A	0.139
U33G U60G	0.0365
U33G U60A	0.0846
U33G U58C	0.119
G34U U67A	0.876
G34U U67C	0.976

Variant	self-cleavage
U33C C37A	0.182
U33C C37U	0.0997
G32U G68C	0.0784
G34C G42U	1.19
U33A A64G	0.164
G32A U70C	0.0825
G34C A45G	0.368
U33C C50A	0.114
G34A U52A	1.31
U33G A39C	0.149
G32C G57U	0.072
G32C G57A	0.0977
G34A C46U	0.135
G32C U55C	0.0178
G32C A36U	0.136
G32C A36G	0.0754
U33C A39G	0.134
G32C A64C	0.183
G32C A64U	0.159
G32C A64G	0.0936
G32U U33G	0.0653
G32U A59C	0.0899
G32U A59U	0.0402
U33C C46A	0.0278

Variant	self-cleavage
G32C U52G	0.125
U33G A64U	0.144
U33C G51C	0.0825
G34A C66A	0.469
U33C U67G	0.21
G32U G54U	0.0884
G32U G54A	0.105
U33G C50G	0.12
G32C G56A	0.13
G32C G56C	0.149
U33C G69U	0.0808
U33G G51C	0.202
U33G G51U	0.252
U33G G34C	0.337
U33G U62G	0.0966
U33G U62A	0.126
G32A U53A	0.0993
G32A A49C	0.0198
G32A A49U	0.0556
G34A A45C	0.202
G34U G42A	0.883
U33A C37A	0.112
G34C U52G	0.379
U33A A36U	0.0862

Variant	self-cleavage
G32A C48A	0.128
G32U A44G	0.0996
G32A A41U	0.396
U33G A36G	0.0878
U33C G68C	0.0535
G34A C50U	0.653
G32C A45G	0.0948
G32C A45C	0.145
U33C U53C	0.154
G34U G56C	0.409
U33C A45G	0.227
G34C A39C	0.9
G32C A35C	0
G34C A64G	0.792
G34C A64U	0.442
G34C U67G	0.517
G34U A41U	1.53
G34C G51A	1.61
G34C G54U	1.19
G34U A35C	1.2
G34U A35G	1.47
G32U A36C	0.1
U33G G68A	0.151
U33G G68U	0.0922

Variant	self-cleavage
G34U U60G	1.34
G34U U60C	1.42
G34U A43U	0.0758
G34U A43C	0.0997
U33G A59C	0.139
U33C G56A	0.0589
U33C G56C	0.167
U33A U67C	0.104
G34C U55C	1.19
U33C G57U	0.19
G32C G54A	0.0613
G32C G54U	0.0594
G32U C50A	0.0903
G32U G40A	0.122
G32A A59U	0.167
G32A A61U	0.154
U33C A43C	0
U33C A43U	0.231
U33A C46G	0.176
U33A C46A	0.122
G34A C65G	0.477
U33A G51A	0.177
U33A G51U	0.129
